Reference: PMC9006298

Biological target: p.Arg127Gln GPIbα (amino acids Met1-Glu301) (human) (UniProt P07359)
Test: SPR

Sequence of UniProt P07359 (P07359 17-301 R127Q): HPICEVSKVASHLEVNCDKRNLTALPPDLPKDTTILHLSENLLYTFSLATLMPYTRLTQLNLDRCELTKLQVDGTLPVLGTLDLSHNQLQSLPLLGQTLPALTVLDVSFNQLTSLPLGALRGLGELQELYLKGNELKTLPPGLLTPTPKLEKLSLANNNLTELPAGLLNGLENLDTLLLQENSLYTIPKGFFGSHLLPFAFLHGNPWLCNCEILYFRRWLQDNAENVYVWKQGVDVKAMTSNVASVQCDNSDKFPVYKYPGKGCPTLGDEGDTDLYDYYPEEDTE

Substance: VWF A1 domain (domain or fragment)
- Kd: 2040 nM
